Substitutions are numbered along the chain they refer to.
T1: FcγRIIa(H) extracellular domain, His-tagged (human, UniProt P12318 34-217)
T1 construct: extracellular domain; also called 2aH
T1 sequence: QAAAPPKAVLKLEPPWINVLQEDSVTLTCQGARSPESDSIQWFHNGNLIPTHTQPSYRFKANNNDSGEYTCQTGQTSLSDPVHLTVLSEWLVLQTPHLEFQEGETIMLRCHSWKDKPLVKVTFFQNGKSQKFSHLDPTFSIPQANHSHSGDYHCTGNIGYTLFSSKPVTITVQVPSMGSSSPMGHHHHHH

T2: FcγRIIa(R) extracellular domain, His-tagged (human, UniProt P12318 34-217)
T2 construct: extracellular domain; also called 2aR
T2 sequence: T1 sequence with H134R

T3: FcγRIIb extracellular domain, His-tagged (human, UniProt P31994 43-217)
T3 construct: extracellular domain; also called 2b
T3 sequence: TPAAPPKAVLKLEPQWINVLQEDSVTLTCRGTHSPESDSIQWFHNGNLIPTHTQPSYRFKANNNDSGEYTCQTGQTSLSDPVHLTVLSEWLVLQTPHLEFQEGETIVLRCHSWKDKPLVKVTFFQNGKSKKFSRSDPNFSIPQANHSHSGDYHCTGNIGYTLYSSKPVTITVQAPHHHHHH

B1: GpH7-A5/GpH7-B3 variant G236_13S/GpL16-k0 (antibody, human IgG1, kappa)
heavy 1: not shown
heavy 2: not shown
light: DIVMTQSPLSLPVTPGEPASISCQASESLVHSNRNTYLHWYLQKPGQSPQLLIYKVSNRFSGVPDRFSGSGSGTDFTLKISRVEAEDVGVYYCSQNTHVPPTFGQGTKVEIERTVAAPSVFIFPPSDEQLKSGTASVVCLLNNFYPREAKVQWKVDNALQSGNSQESVTEQDSKDSTYSLSSTLTLSKADYEKHKVYACEVTHQGLSSPVTKSFNRGEC
B2: GpH7-A5/GpH7-B3 variant H268_08L/GpL16-k0 (antibody, human IgG1, kappa)
heavy 1: not shown
heavy 2: not shown
light: B1 light
B3: GpH7-A5/GpH7-B3 variant L234_02A/GpL16-k0 (antibody, human IgG1, kappa)
heavy 1: not shown
heavy 2: not shown
light: B1 light
B4: GpH7-A5/GpH7-B3 variant H268_20W/GpL16-k0 (antibody, human IgG1, kappa)
heavy 1: not shown
heavy 2: not shown
light: B1 light
B5: GpH7-A5/GpH7-B3 variant H268_07I/GpL16-k0 (antibody, human IgG1, kappa)
heavy 1: not shown
heavy 2: not shown
light: B1 light
B6: GpH7-A5/GpH7-B3 variant H268_06M/GpL16-k0 (antibody, human IgG1, kappa)
heavy 1: not shown
heavy 2: not shown
light: B1 light
B7: GpH7-A5/GpH7-B3 variant H268_05P/GpL16-k0 (antibody, human IgG1, kappa)
heavy 1: not shown
heavy 2: not shown
light: B1 light
B8: GpH7-A5/GpH7-B3 variant L234_06M/GpL16-k0 (antibody, human IgG1, kappa)
heavy 1: not shown
heavy 2: not shown
light: B1 light
B9: GpH7-A5/GpH7-B3 variant L234_14T/GpL16-k0 (antibody, human IgG1, kappa)
heavy 1: not shown
heavy 2: not shown
light: B1 light
B10: GpH7-A5/GpH7-B3 variant H268_15Y/GpL16-k0 (antibody, human IgG1, kappa)
heavy 1: not shown
heavy 2: not shown
light: B1 light
B11: GpH7-A5/GpH7-B3 variant H268_18N/GpL16-k0 (antibody, human IgG1, kappa)
heavy 1: not shown
heavy 2: not shown
light: B1 light
B12: GpH7-A5/GpH7-B3 variant L234_07I/GpL16-k0 (antibody, human IgG1, kappa)
heavy 1: not shown
heavy 2: not shown
light: B1 light
B13: GpH7-A5/GpH7-B3 variant H268_12R/GpL16-k0 (antibody, human IgG1, kappa)
heavy 1: not shown
heavy 2: not shown
light: B1 light
B14: GpH7-A5/GpH7-B3 variant L234_04F/GpL16-k0 (antibody, human IgG1, kappa)
heavy 1: not shown
heavy 2: not shown
light: B1 light
B15: GpH7-A5/GpH7-B3 variant H268_11K/GpL16-k0 (antibody, human IgG1, kappa)
heavy 1: not shown
heavy 2: not shown
light: B1 light
B16: GpH7-A5/GpH7-B3 variant H268_03V/GpL16-k0 (antibody, human IgG1, kappa)
heavy 1: not shown
heavy 2: not shown
light: B1 light
B17: GpH7-A5/GpH7-B3 variant H268_09D/GpL16-k0 (antibody, human IgG1, kappa)
heavy 1: not shown
heavy 2: not shown
light: B1 light
B18: GpH7-A5/GpH7-B3 variant H268_02A/GpL16-k0 (antibody, human IgG1, kappa)
heavy 1: not shown
heavy 2: not shown
light: B1 light
B19: GpH7-A5/GpH7-B3 variant L234_03V/GpL16-k0 (antibody, human IgG1, kappa)
heavy 1: not shown
heavy 2: not shown
light: B1 light
B20: GpH7-A5/GpH7-B3 variant L234_05P/GpL16-k0 (antibody, human IgG1, kappa)
heavy 1: not shown
heavy 2: not shown
light: B1 light
B21: GpH7-A5/GpH7-B3 variant L234_01G/GpL16-k0 (antibody, human IgG1, kappa)
heavy 1: not shown
heavy 2: not shown
light: B1 light
B22: GpH7-A5/GpH7-B3 variant L234_13S/GpL16-k0 (antibody, human IgG1, kappa)
heavy 1: not shown
heavy 2: not shown
light: B1 light
B23: GpH7-A5/GpH7-B3 variant L234_10E/GpL16-k0 (antibody, human IgG1, kappa)
heavy 1: not shown
heavy 2: not shown
light: B1 light
B24: GpH7-A5/GpH7-B3 variant H268_19Q/GpL16-k0 (antibody, human IgG1, kappa)
heavy 1: not shown
heavy 2: not shown
light: B1 light
B25: GpH7-A5/GpH7-B3 variant H268_10E/GpL16-k0 (antibody, human IgG1, kappa)
heavy 1: not shown
heavy 2: not shown
light: B1 light
B26: GpH7-A5/GpH7-B3 variant L234_09D/GpL16-k0 (antibody, human IgG1, kappa)
heavy 1: not shown
heavy 2: not shown
light: B1 light
B27: GpH7-A5/GpH7-B3 variant H268_13S/GpL16-k0 (antibody, human IgG1, kappa)
heavy 1: not shown
heavy 2: not shown
light: B1 light
B28: GpH7-A5/GpH7-B3 variant G236_20W/GpL16-k0 (antibody, human IgG1, kappa)
heavy 1: not shown
heavy 2: not shown
light: B1 light
B29: GpH7-A5/GpH7-B3 variant H268_04F/GpL16-k0 (antibody, human IgG1, kappa)
heavy 1: not shown
heavy 2: not shown
light: B1 light
B30: GpH7-A5/GpH7-B3 variant H268_01G/GpL16-k0 (antibody, human IgG1, kappa)
heavy 1: not shown
heavy 2: not shown
light: B1 light
B31: GpH7-A5/GpH7-B3 variant L234_15Y/GpL16-k0 (antibody, human IgG1, kappa)
heavy 1: not shown
heavy 2: not shown
light: B1 light

The binders below were run against T1, FcγRIIa(H) extracellular domain, … (assay: SPR, vs GpH7-A5/GpH7-B3/GpL16-k0 =100).

He/Con 2aH | Binder
140 % of control | B1
85.9 % of control | B2
90.1 % of control | B3
96.9 % of control | B4
91.2 % of control | B5
85.8 % of control | B6
82.7 % of control | B7
96.4 % of control | B8
86.8 % of control | B9
113 % of control | B10
113 % of control | B11
101 % of control | B12
90.9 % of control | B13
133 % of control | B14
89.8 % of control | B15
100 % of control | B16

He/Con 2aH | Binder
134 % of control | B17
115 % of control | B18
94.4 % of control | B19
104 % of control | B20
84.1 % of control | B21
89.4 % of control | B22
98.2 % of control | B23
104 % of control | B24
126 % of control | B25
100 % of control | B26
114 % of control | B27
153 % of control | B28
112 % of control | B29
100 % of control | B30
134 % of control | B31

What follows are binders tested against T2, FcγRIIa(R) extracellular domain, … (assay: SPR, vs GpH7-A5/GpH7-B3/GpL16-k0 =100).

He/Con 2aR | Binder
135 % of control | B1
91.4 % of control | B2
92.5 % of control | B3
122 % of control | B4
102 % of control | B5
87.2 % of control | B6
114 % of control | B7
109 % of control | B8
90 % of control | B9
118 % of control | B10
138 % of control | B11
110 % of control | B12
113 % of control | B13
121 % of control | B14
108 % of control | B15
117 % of control | B16

He/Con 2aR | Binder
161 % of control | B17
143 % of control | B18
99 % of control | B19
104 % of control | B20
72.4 % of control | B21
82.6 % of control | B22
130 % of control | B23
128 % of control | B24
159 % of control | B25
142 % of control | B26
137 % of control | B27
77.3 % of control | B28
105 % of control | B29
134 % of control | B30
113 % of control | B31

The binders below were run against T3, FcγRIIb extracellular domain, His-tagged (assay: SPR, vs GpH7-A5/GpH7-B3/GpL16-k0 =100).

He/Con 2b | Binder
101 % of control | B1
71.2 % of control | B2
74.1 % of control | B3
117 % of control | B4
93.4 % of control | B5
69 % of control | B6
122 % of control | B7
89.6 % of control | B8
71.4 % of control | B9
112 % of control | B10
164 % of control | B11
92.3 % of control | B12
94.3 % of control | B13
114 % of control | B14
87.2 % of control | B15
120 % of control | B16

He/Con 2b | Binder
251 % of control | B17
175 % of control | B18
83.4 % of control | B19
83.2 % of control | B20
57.8 % of control | B21
67.7 % of control | B22
134 % of control | B23
140 % of control | B24
242 % of control | B25
172 % of control | B26
168 % of control | B27
60.7 % of control | B28
94.2 % of control | B29
151 % of control | B30
110 % of control | B31

The binders below were run against T4, FcγRIIIa extracellular domain, His-tagged (human, UniProt P08637 17-208) (assay: SPR, vs GpH7-A5/GpH7-B3/GpL16-k0 =100).
T4 construct: extracellular domain; also called 3a
T4 sequence (P08637 other isoform, or with tags, fused parts or gaps): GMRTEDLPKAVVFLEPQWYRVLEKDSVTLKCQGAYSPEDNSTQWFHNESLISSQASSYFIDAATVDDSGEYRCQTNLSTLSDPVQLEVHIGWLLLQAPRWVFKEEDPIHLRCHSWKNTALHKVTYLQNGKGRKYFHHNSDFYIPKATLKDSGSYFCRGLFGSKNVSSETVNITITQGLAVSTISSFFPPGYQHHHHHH

He/Con 3a | Binder
60.3 % of control | B1
75.9 % of control | B2
69.7 % of control | B3
82 % of control | B4
84.1 % of control | B5
79.5 % of control | B6
75.6 % of control | B7
82.9 % of control | B8
69.8 % of control | B9
96.5 % of control | B10
103 % of control | B11
99.5 % of control | B12
76 % of control | B13
114 % of control | B14
81.6 % of control | B15
91.4 % of control | B16

He/Con 3a | Binder
195 % of control | B17
121 % of control | B18
88.3 % of control | B19
85.1 % of control | B20
55.8 % of control | B21
68.1 % of control | B22
111 % of control | B23
113 % of control | B24
184 % of control | B25
113 % of control | B26
121 % of control | B27
126 % of control | B28
96 % of control | B29
95.7 % of control | B30
126 % of control | B31

These binders were tested against T5, FcγRIa extracellular domain, His-tagged (human, UniProt P12314 16-292) (assay: SPR, vs GpH7-A5/GpH7-B3/GpL16-k0 =100).
T5 construct: extracellular domain; also called 1a
T5 sequence (P12314 other isoform, or with tags, fused parts or gaps): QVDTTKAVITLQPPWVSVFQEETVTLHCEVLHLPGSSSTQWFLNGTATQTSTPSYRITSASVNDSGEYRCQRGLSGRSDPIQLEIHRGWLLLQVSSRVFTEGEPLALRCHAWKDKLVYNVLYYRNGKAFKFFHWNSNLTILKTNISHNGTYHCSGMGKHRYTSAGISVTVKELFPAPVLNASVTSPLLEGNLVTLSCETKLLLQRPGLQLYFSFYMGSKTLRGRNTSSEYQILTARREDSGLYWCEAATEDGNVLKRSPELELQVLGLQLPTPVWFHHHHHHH

He/Con 1a | Binder
96 % of control | B1
104 % of control | B2
101 % of control | B3
103 % of control | B4
104 % of control | B5
101 % of control | B6
106 % of control | B7
107 % of control | B8
102 % of control | B9
104 % of control | B10
104 % of control | B11
106 % of control | B12
103 % of control | B13
104 % of control | B14
102 % of control | B15
103 % of control | B16

He/Con 1a | Binder
106 % of control | B17
105 % of control | B18
108 % of control | B19
103 % of control | B20
99.2 % of control | B21
100 % of control | B22
104 % of control | B23
104 % of control | B24
107 % of control | B25
101 % of control | B26
106 % of control | B27
104 % of control | B28
103 % of control | B29
104 % of control | B30
103 % of control | B31

Source: patent US20260167699A1 (Chugai, published 2026)
